{"source": "the PETadex activity labels (doi:10.1042/bj3320075)", "proteins": {"B1": {"name": "unnamed (protein)", "chain": "MKPENKLPVLDLISAEMKTVVNTLQPDLPPWPATGTIAEQRQYYTLERRFWNAGAPEMATRAYMVPTKYGQVETRLFCPQPDSPATLFYLHGGGFILGNLDTHDRIMRLLASYSQCTVIGIDYTLSPEARFPQAIEEIVAACCYFHQQAEDYQINMSRIGFAGDSAGAMLALASALWLRDKQIDCGKVAGVLLWYGLYGLRDSVTRRLLGGVWDGLTQQDLQMYEEAYLSNDADRESPYYCLFNNDLTREVPPCFIAGAEFDPLLDDSRLLYQTLAAHQQPCEFKLYPGTLHAFLHYSRMMKTADEALRDGAQFFTAQL"}}, "settings_in_all_cases": "pH 7.1; 25 °C", "key": {"p-NP-C2": {"substrate": "p-NP-C2"}, "p-NP-C3": {"substrate": "p-NP-C3"}, "p-NP-C4": {"substrate": "p-NP-C4"}, "p-NP-C5": {"substrate": "p-NP-C5"}, "p-NP-C6": {"substrate": "p-NP-C6"}, "p-NP-C8": {"substrate": "p-NP-C8"}}, "data": [{"protein": "B1", "values": [{"measurement": "Km", "setting": "p-NP-C2", "value": 1500, "unit": "µM"}, {"measurement": "kcat", "setting": "p-NP-C2", "value": 30.8, "unit": "s⁻¹"}, {"measurement": "kcat/Km", "setting": "p-NP-C2", "value": 20500, "unit": "M⁻¹ s⁻¹"}, {"measurement": "Km", "setting": "p-NP-C3", "value": 700, "unit": "µM"}, {"measurement": "kcat", "setting": "p-NP-C3", "value": 30.9, "unit": "s⁻¹"}, {"measurement": "kcat/Km", "setting": "p-NP-C3", "value": 44100, "unit": "M⁻¹ s⁻¹"}, {"measurement": "Km", "setting": "p-NP-C4", "value": 500, "unit": "µM"}, {"measurement": "kcat", "setting": "p-NP-C4", "value": 30.9, "unit": "s⁻¹"}, {"measurement": "kcat/Km", "setting": "p-NP-C4", "value": 61800, "unit": "M⁻¹ s⁻¹"}, {"measurement": "Km", "setting": "p-NP-C5", "value": 260, "unit": "µM"}, {"measurement": "kcat", "setting": "p-NP-C5", "value": 20.5, "unit": "s⁻¹"}, {"measurement": "kcat/Km", "setting": "p-NP-C5", "value": 78800, "unit": "M⁻¹ s⁻¹"}, {"measurement": "Km", "setting": "p-NP-C6", "value": 220, "unit": "µM"}, {"measurement": "kcat", "setting": "p-NP-C6", "value": 6.2, "unit": "s⁻¹"}, {"measurement": "kcat/Km", "setting": "p-NP-C6", "value": 28200, "unit": "M⁻¹ s⁻¹"}, {"measurement": "Km", "setting": "p-NP-C8", "value": 160, "unit": "µM"}, {"measurement": "kcat", "setting": "p-NP-C8", "value": 0.21, "unit": "s⁻¹"}, {"measurement": "kcat/Km", "setting": "p-NP-C8", "value": 1310, "unit": "M⁻¹ s⁻¹"}]}]}
